Settings: Escherichia coli (strain K12), Thermal, DSC, NaCl 100 mM, reversible: yes(>85%)
[1] = pH 5.5, Sodium cacodylate 10 mM

Chain of Cold shock protein CspA wild type, P0A9X9 (P0A9X9 whole entry): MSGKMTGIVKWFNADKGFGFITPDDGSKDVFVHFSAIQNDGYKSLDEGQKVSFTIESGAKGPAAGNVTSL

In the case of “Cold shock protein CspA wild type, P0A9X9”, the Tm (pH 4, Sodium acetate 10 mM) is reported as 33.2 °C, the “unfolding enthalpy (calorimetric)” value (pH 4, Sodium acetate 10 mM) is reported as 22.7 kcal/mol and the Tm (pH 4.5, Sodium acetate 10 mM) is reported as 42.1 °C. For the same substance, the “unfolding enthalpy (calorimetric)” value (pH 4.5, Sodium acetate 10 mM) was 28.9 kcal/mol, the Tm (pH 5, Sodium acetate 10 mM) was 47.7 °C and the “unfolding enthalpy (calorimetric)” value (pH 5, Sodium acetate 10 mM) was 33 kcal/mol. For the same substance, the Tm [1] was 54.4 °C, the “unfolding enthalpy (calorimetric)” value [1] was 39.9 kcal/mol and the Tm (pH 6, MOPS 10 mM) was 54.1 °C. The “unfolding enthalpy (calorimetric)” value (pH 6, MOPS 10 mM) was 39.9 kcal/mol, the Tm (pH 6, PIPES 10 mM) was 53.1 °C and the “unfolding enthalpy (calorimetric)” value (pH 6, PIPES 10 mM) was 36.1 kcal/mol. The Tm (pH 6, Sodium cacodylate 10 mM) was 56.5 °C, the “unfolding enthalpy (calorimetric)” value (pH 6, Sodium cacodylate 10 mM) was 44.9 kcal/mol and the Tm (pH 6, Sodium phosphate 10 mM) was 55.9 °C. The “unfolding enthalpy (calorimetric)” value (pH 6, Sodium phosphate 10 mM) was 39.4 kcal/mol, the Tm (pH 6.5, HEPES 10 mM) was 56.5 °C and the “unfolding enthalpy (calorimetric)” value (pH 6.5, HEPES 10 mM) was 43.5 kcal/mol. For the same substance, the Tm (pH 6.5, MOPS 10 mM) was 56.1 °C, the “unfolding enthalpy (calorimetric)” value (pH 6.5, MOPS 10 mM) was 39.9 kcal/mol and the Tm (pH 6.5, PIPES 10 mM) was 55.2 °C. For the same substance, the “unfolding enthalpy (calorimetric)” value (pH 6.5, PIPES 10 mM) was 41.4 kcal/mol, the Tm (pH 6.5, Sodium citrate 10 mM) was 56.8 °C and the “unfolding enthalpy (calorimetric)” value (pH 6.5, Sodium citrate 10 mM) was 45.2 kcal/mol. The Tm (pH 6.5, Sodium phosphate 10 mM) was 56.1 °C, the “unfolding enthalpy (calorimetric)” value (pH 6.5, Sodium phosphate 10 mM) was 43.3 kcal/mol and the Tm (pH 6.5, imidazole 10 mM) was 53.7 °C. For the same substance, the “unfolding enthalpy (calorimetric)” value (pH 6.5, imidazole 10 mM) was 39.2 kcal/mol, the Tm (pH 7, HEPES 10 mM) was 57.6 °C and the “unfolding enthalpy (calorimetric)” value (pH 7, HEPES 10 mM) was 47.6 kcal/mol. The Tm (pH 7, MOPS 10 mM) was 56.4 °C, the “unfolding enthalpy (calorimetric)” value (pH 7, MOPS 10 mM) was 40.6 kcal/mol and the Tm (pH 7, PIPES 10 mM) was 55.7 °C. For the same substance, the “unfolding enthalpy (calorimetric)” value (pH 7, PIPES 10 mM) was 41.4 kcal/mol, the Tm (pH 7, Sodium cacodylate 10 mM) was 57 °C and the “unfolding enthalpy (calorimetric)” value (pH 7, Sodium cacodylate 10 mM) was 47.3 kcal/mol. The Tm (pH 7, Sodium citrate 10 mM) was 57 °C, the “unfolding enthalpy (calorimetric)” value (pH 7, Sodium citrate 10 mM) was 46.4 kcal/mol and the Tm (pH 7, Sodium phosphate 10 mM) was 57 °C. The “unfolding enthalpy (calorimetric)” value (pH 7, Sodium phosphate 10 mM) was 43.3 kcal/mol, the Tm (pH 7, imidazole 10 mM) was 55.8 °C and the “unfolding enthalpy (calorimetric)” value (pH 7, imidazole 10 mM) was 40.1 kcal/mol. The Tm (pH 7.5, HEPES 10 mM) was 57.8 °C, the “unfolding enthalpy (calorimetric)” value (pH 7.5, HEPES 10 mM) was 49 kcal/mol and the Tm (pH 7.5, MOPS 10 mM) was 56.2 °C. The “unfolding enthalpy (calorimetric)” value (pH 7.5, MOPS 10 mM) was 41.4 kcal/mol, the Tm (pH 7.5, PIPES 10 mM) was 56 °C and the “unfolding enthalpy (calorimetric)” value (pH 7.5, PIPES 10 mM) was 42.3 kcal/mol. For the same substance, the Tm (pH 7.5, Sodium citrate 10 mM) was 57.3 °C, the “unfolding enthalpy (calorimetric)” value (pH 7.5, Sodium citrate 10 mM) was 48.3 kcal/mol and the Tm (pH 7.5, Sodium phosphate 10 mM) was 57.1 °C. The “unfolding enthalpy (calorimetric)” value (pH 7.5, Sodium phosphate 10 mM) was 46.9 kcal/mol, the Tm (pH 7.5, imidazole 10 mM) was 55.9 °C and the “unfolding enthalpy (calorimetric)” value (pH 7.5, imidazole 10 mM) was 39 kcal/mol. For the same substance, the Tm (pH 8, MOPS 10 mM) was 57.1 °C, the “unfolding enthalpy (calorimetric)” value (pH 8, MOPS 10 mM) was 42.5 kcal/mol and the Tm (pH 8, imidazole 10 mM) was 56.8 °C. For the same substance, the “unfolding enthalpy (calorimetric)” value (pH 8, imidazole 10 mM) was 38.2 kcal/mol, the Tm (pH 8.5, HEPES 10 mM) was 56.5 °C and the “unfolding enthalpy (calorimetric)” value (pH 8.5, HEPES 10 mM) was 42.1 kcal/mol. The Tm (pH 8.5, Sodium borate 10 mM) was 57.7 °C, the “unfolding enthalpy (calorimetric)” value (pH 8.5, Sodium borate 10 mM) was 44.5 kcal/mol and the Tm (pH 8.7, Sodium borate 10 mM) was 57.6 °C. For the same substance, the “unfolding enthalpy (calorimetric)” value (pH 8.7, Sodium borate 10 mM) was 43.7 kcal/mol.
